A protein production outcome set (Wang et al. 2014)

Test: label from the status in PepcDB records

Which protein production does the source give for “MGLFQIKPDIHYGANSLDILRTLEMEKVFLVTDENMVKLKVINKVTNILKSRGIEAKVYSDVKPDPTDEEIIKGMLELSAHDPDCIIALGGGSPIDACKSMIYFTNQIKRAMGQNKKPKFIAIPTTSGTGSEVTSYAVVTTKDKKIPLSDSEMLPDIAILNPEFIKTLSPSIIADTGMDVLTHAIEAYVSKSRNLFTNTFAIGAIKTVFADLVSNFENPQLEKERINLQIASCMAGVAFSNAGLGINHSIAHSLGARFHKPHGRLNAVIMSEVIQFNARNKNAAKYYREIVEALGFSPKEDVEGVEILAKAIKMRAAKMGIPNSLSELGIPKEQYFDEMEGIIDQIENDMCTGENPRRFSRIEMKQLLTDLY” here?
Its protein production is “not failed”.

Which protein production does the source give for “MKTSRECFSSAGGSPMIRATSARSPPVPQSALPIGSLLSAPRPAFTETEAQGLARTHFGLDGTALPLTSERDQNFRLATPRGAFVLKIANAAEPRGVTECQTLALLHLEAVAPGLPVPRVIRTREGAPWTELAGGNLLRLLTWVEGEPLWRARRGAAQRRAVGLCLGGIAAALADFSHPSADHELLWDIRHAARLRALLPAIPDARTAVLAERVLDRFETAVAPRLADLPWQVVHNDMNPHNIMVDPANADRVAGVIDFGDLVRTARVCDLAVAGSYQVDPGDPAGTLADLVAGYHAANPLRPEEVELLPDLVAARMVTTIAIASARAAQQPDNAPYILRNLPASAAGLEALTALAPGAAAAALLRATEAA” here?
The protein production was “failed”.

Which protein production does the source give for “MGIIERIKEIEAEMARTQKNKATEYHLGQLKAKIAKLRTQLLEPPKGASGGGEGFEVTKYGHGRVALIGFPSVGKSTLLTMLTGTHSEAASYEFTTLTCIPGVIHYNDTKIQLLDLPGIIEGASEGKGRGRQVIAVAKSSDLVLMVLDASKSEGHRQILTKELEAVGLRLNKTPPQIYFKKKKTGGISFNTTAPLTHIDEKLCYQILHEYKIHNAEVLFRENATVDDFIDVIEGNRKYIKCVYVYNKIDVVGIDDVDRLSRQPNSIVISCNLKLNLDRLLARMWDEMGLVRVYSKPQGQQPDFDEPFVLSSDRGGCTVEDFCNHVHRTLVKDMKYALVWGTSTRHNPQNCGLSQHLEDEDVVQIVKKKERDEGGRGRFKSHSNAPARIADREKKAPLKQ” here?
Its protein production is “failed”.

With “MPFCPEEFYCRITQNIESLNNIAKIQHAANTDYLTDLANRRAFFRSAESRIKEYINKKVPYCLAMIDVDFFKKVNDTYGHDSGDQVLKVIALYMRKHFGAGLTARLGGEEFAVLLHGLDADYLHNKLDDFRREIAVSSIPAGDTSISITLSLGVVFDSEDELSKQMNEADNALYAAKENGRNQIVVFGAELDDLEHHHHHH” as the sequence, how does the protein production read?
The protein production was “failed”.

Which protein production does the source give for “MRKLRKLLLFSTVLFVVFTQLFGFIITVDAAETATINLSAEKQVIRGFGGMNHPVWISDLTPQQRDTAFGNGEGQLGFTILRIHVDENRNNWSKEVATARRAIELGAIVFASPWNPPSNMVETFTRNGVPNQKRLRYDKYGDYVQHLNDFVAYMKSNGVDLYAISVQNEPDYAHEWTWWTPQEMLRFMRDYAGQINCRVMAPESFQYLKNMSDPILNDPQALANLDILGAHFYGTTVNNMPYPLFEQKGAGKELWMTEVYVPNSDSNSADRWPEALEVAHNMHNALVEGNFQAYVWWYIRRSYGPMKEDGTISKRGYMMAHYSKFVRPGYVRVDATKNPTYNVYLSAYKNKKDNSVVAVVINKSTEAKTINISVPGTSIRKWERYVTTGSKNLRKESDINASGTTFQVTLEPQSVTTFVGGGSSEPQIPVERNAFSKIECEEYNATNSSTVQVVGTGTGSGLGYIENGNYFAYKNINFGNGANSFKIRAATTGTPKIEIRLGSPTGTLAGTLQVAATGGFNAYEEQSCSINKITGVQDVYLVFGGAVNVDWFTFESKQEPTFKYGDLNGDGNVNSTDSTLMSRYLLGIITTLPAGEKAADLNGDGKVNSTDYNILKRYLLKYIDKFPVES” here?
Its protein production is “failed”.

Which protein production does the source give for “MTDLIYNDPDFVQFYDIENQDGRADFDYCVRLARDGGSVLDLGCGTGQLAAEMAQGCNVTGVDPASAMLDVARRRTGGDKVDWVVADARTVRLGRRFDLVLLTGHVFQVFLTDEDQRAVLRTIAEHLGPGGRFIFDTRNPAVEAWLEWTPQRSERMVEHPSLGTVRAWYDADWDAASAVVTYSTFYEIPGGRPILGAESKIAFPKKQDLAGMLDDAGLLVEQWLGDWQGEPYADTSPEIIPIGRLR” here?
Its protein production is “failed”.

With “MIVEVLIRVFFLICTAALGWGAGYILKLSSKEISSLLVYVISPFVIFVSILQSPADWTYFAYSLGALLTASVAAFLAYGLARMIWSDGRVNLFSFAAGTGNTGYFALPLAFALFNAQQIAIAVFIIIGINIYEFTVGYFIAAKGTFKTTDSLQKIVRLPILYAIILGMTFKKWGIDVGATLLSAMSNFKGAYSVLGMMVIGVTLASYQKIKIDWGFLIATLTWKHLIYPAVGVLIFYFITPVSIDTLAVIVMMLATPMAANTVVVANTLNLYPEKAAFSVMVSTFLAVVTVPLAIVWVTRLSR” as the sequence, how does the protein production read?
The protein production was “failed”.

For “MSNGTPQKTKLHFPHTYALIFFIIILAALASYFIPSGEFKRVEEDGQTVIVQGSYKQTDAGPVGFFEMFKAIPEGMIQSADIIFYIFLIGGAFGIIHQTGMIRAGVHVLVQRLKKRGFLLIPVTMFVFSIGGATIGLSEETIIFIPIGIAVARALGYDSMTGLAMISLGAAAGFTGGMLNPFTVGIAQTIAEVPVFSAFGYRLAVYAAMLGFSIFYVMRYAQQVKAHPNTGLMYGSETEINEETAAGHADLSFTGRHGLVLLITALGFGINMFGVFQWGWFLSELSAGFLIIGFAAGLAGGRGINNTFHSFVDGMKQVVYGALIVGFARAIVIVLENGHIIDTIINSLASAISSLPNEISAIGMFAVQIAINTFIPSGSGQAATTMPLMAPLADLLGFERQIAVFAYQYGDGITNSIIPTSGVLLASLSIAGVPYERWVKFVWKLIAGWIIIGAAAIVIAMIIGIK”, which protein production is on record?
The protein production was “failed”.

Which protein production does the source give for “MTDPLIPVDTYLVDSLPEVWFGAVVFALGMYIVLDGFDFGIGMLYATRTDEHERETFLAAFGPVWDANEVWIVAFGTMLLAAFPRVYSRLLADNYLLALGFVVALVFRGLGPELREQREDERWKRYTDYAFVGGSVFAPLLLGMLAGRWLFAGATLPVVLTGVGLVAVSIVTGAAFLAAKTDSGLASELRSYGVGATVAYLGGVVVLLGTVVATDAGGAASAVLSLPVAAVVALSIVAGLGGSVLARRGRYRAWLASALALPTLLTLLVAVLLYPTVYPPTGLLVREAVVSPLALNLVTVLGFPVLLLVLWYFKFLYGVFSGPIEGEGYGG” here?
Its protein production is “failed”.

For “MVVDSVTMEEEDTKEEAAMVATEGEDTKEEEDDTKEAVGDKEEGEVTAATAAATKVTMAAQGVVHMPEKRFRLSLVTKST”, which protein production is on record?
Its protein production is “failed”.

With “MSESKEMVRGTFLITISILITKVLGVLFIIPFTALIGGQANMAPFTYAYAPYNIAIAIATAGVPLAASKYVAKYNALGAYKVSQKFYKSSFVVMSITGIVGFLVLYLLAPYIAELTLSRNTHGNNGWTVADITWIIRIISMVVIFIPVLATWRGIFQGYKSMGPTAVSEVTEQIARIVFILVGSYLTLNVFGGTVLQANGIATFAAAIGAIAGILTLWYYWIKRRKNIKKMIDSDTANLNVSYGKMYKEIIAYSIPFVIVSLNFPLFNLVDQFTHNGALNLVGVKPGLQDIFFNMLNMSTNKIVMIPTSLSAGFAVSLIPFITKTYEEGRYAEMHRQIRTSIGVLMFITVPASIGIMALAQPLFTVFYGFDPVVHGHDPNFDGSRLLFYYAPVAILISLLSVTASMLQGIDKQKLTVFIILGSVLIKLILNYPLIMLLHTPGAVLSTAIALLFAICCNFYILKKYANFKFSYSWIHLAKIILISIIMMIGVEVIFFILRLFLEPTRFNYLIIVAIGVIVGAIIYGGITIKTKLADEFLGDIPAKIRRKVKMLR” as the sequence, how does the protein production read?
Its protein production is “failed”.

Which protein production does the source give for “MPGTKQVNVGSLKVGQYVMIDGVPCEIVDISVSKPGKHGGAKARVVGIGIFEKVKKEFVAPTSSKVEVPIIDRRKGQVLAIMGDMVQIMDLQTYETLELPIPEGIEGLEPGGEVEYIEAVGQYKITRVIGGK” here?
Its protein production is “not failed”.

With “MGHHHHHHSHMIDSIRVEGFRGLKELELSSLRRINVIVGRNNSGKSTLLEALSLFLGSSDPGTFGNVLHEILIWRGWYGIQTVDDLFYNGGDSFSISSTGKTLEALNSKHSLEFKLNGEPFYKIDRESIRRLASQAVLLARFSPKENFEFLTPLTFRRFGYAESLYSYAYERKVVKDSIKVLNEAYPEVEGFSPLLKEDNWVLYVETKYGVYPYYLMGEGFKSAMIISFLSSLLRDGVLLIDSAEAFHHP” as the sequence, how does the protein production read?
Its protein production is “failed”.

For “MTLLRDHDLARAFDHASHTYDGLTALNPGYRTGLLRSARRLALPADGAGLHLLDLGCGTGASTRALLRAAPRARITAVDASAGMLRRALVKPWPARVRFLHLTAEEFATTREDEGPFDAVFAAYLFRNVTDPDAVLRAVRQLLRPGGRFAAHEYSLSGSPGHRALWSAVCRGVVIPAGTLTGDRTLYRHLRRSVVAFDTAPEFAARLTRAGLTSVRVAPVAGWQTGIVHTFLARNGGPTTTEERVL”, which protein production is on record?
The protein production was “failed”.

Which protein production does the source give for “METRANYVIVGIFTLVAILAAFGFVYWTAAIGDRGETTLLRVRIPGSASGLGRGSFVLFNGVKVGDVKRVYIDVDNPTVAIADTEIDRLTPITKSTQADIGLAGLTGQANIELKGADPKEVKLLDQAEKEGKVAEIVANPSAVTNLLQTAQNIFSRADKVLSELEGFTRDVRGPLTQTVQNVQTFSDALAKNSDGIDKFLSSVSALSEELKGVSGKLDGTLKAAEGLLNAVDRDKIKSIVANVDTVTANLKQTSQQLDGVIKNVDTAVGSVNDFAKQTQGTLAKVDGVLDGVDPAQVRAALANIQKASENANKAAADIAVVTEKFANRADDIDQTIKDAKQLAQRLNDASVRVDGILARVDTLLGSGQADGLMADARDTLKSFKQVADTLNARLGVITDNLARFSGQGLSNVEALVQDSRRSITRIEEAVTDLSRNPQRILSGGDGEVRQFDGRARR” here?
The protein production was “failed”.

Which protein production does the source give for “MIIESRIEKGKPVVGMETTVFVHGLPRKEAIELFRRAKEISREKGFQLAVIGILKGKIVAGMSEEELEAMMREGADKVGTREIPIVVAEGKNAATTVSATIFLSRRIGIEVVVTGGTGGVHPGRVDVSQDLTEMSSSRAVLVSSGIKSILDVEATFEMLETLEIPLVGFRTNEFPLFFSRKSGRRVPRIENVEEVLKIYESMKEMELEKTLMVLNPVPEEYEIPHDEIERLLEKIELEVEGKEVTPFLLKKLVEMTNGRTLKANLALLEENVKLAGEIAVKLKRS” here?
Its protein production is “not failed”.

Which protein production does the source give for “MESNLTYTEALLKLEEIVEQIEDDSIMLDTLTEKVMQANELIKYCETKLRTIEGDVRDVLQ” here?
The protein production was “failed”.

With “KNRLGTKALNFTYTLDSGVKGTLYQFPAEYTLLFINNPGCHACAEMIEGLKASPVINGFTAAKKLKVLSIYPDEELDEWKKHRNDFAKEWTNGYDKELVIKNKNLYDLRAIPTLYLLDKNKTVLLKDATLQKVEQYLAE” as the sequence, how does the protein production read?
The protein production was “not failed”.

Which protein production does the source give for “RNYNNPVVLCGFAGSTPTGVLAASYIVETLGMHQVAHLISQHIPPVAVFVGGKLRHPFRIYANNSNTVLVAMCEVPISSAHIYEISNTLMNWIDQVGASEIVIMEGSPANGIPEERPVFAVAEKPKLDKFKKAGIQPADSAIIAGMGGGILNECLVRKITGLSFITPTSVDIPDPGAVLSIIEAINKAYNLKIKTDLLEEQVKALDEQIKKIEEQYKELQEKQKEPQSMYG” here?
The protein production was “not failed”.

With “MIPDLVPVSLTPVTVVPNTVNTMTATIENQGNKDSTSFNVSLLVDGIVVDTQTVTSLESENSTNVDFHWTLDGTANSYTLTVNVDPENAVNEGNESNNTLTALVGTLEHHHHHH” as the sequence, how does the protein production read?
The protein production was “not failed”.

Which protein production does the source give for “MTNKAIKATNEELQQVYNDIPKAYDRANRFISFNQDVKWRADLVKTILKYCKRPKLILDVASGKGELSYTFKKIYKDNSNYEIILSDYAENMLKMALIKDDKVLCSFDALPFREKTFDIVMSSFALHASDNIEDVIREITRVSRKIVGFIAMGKPDSWVRRIYLSIYLKYIMPYIAVLGGAKARDFKYIYYIYERVPTNSQHKRIFEKYIDIKVYEERALNLFYFVVGFPKE” here?
The protein production was “failed”.

With “MYTNVHSANNYQANLSNRSYGFKELAVLYFPNIAPASASIRLKQWIKDDVELLGSLEETNYHLSNRILTPKQRDLITTTFGSPFLEHHHHHH” as the sequence, how does the protein production read?
The protein production was “failed”.
